Source: the supplement of paper PMC12042874
± gives the uncertainty stated by the source.

test: amyloid nucleation score (Sup35N fusion, yeast selection) (log enrichment); library NNK1; higher = more nucleation; inactive = no reads after selection
In short: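 After 24 hours of induction with 100 μM copper sulfate, psi-negative yeast expressing peptides of 20 random codons fused to Sup35N were grown for 7 days at 30°C on medium lacking adenine and uracil. Input and output plasmid inserts were sequenced with Illumina, and sequences with under 100 input reads were discarded. Scores for nucleation are the DiMSum log enrichment of output over input reads, centred on the mode score of non-aggregating sequences.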

| Substance | amyloid nucleation score |
| --- | --- |
| WFCVHKTVSLDMASVDRKGQ | 4.8 ± 0.088 |
| LWSTMICLVFMYPIILVNFT | 1.64 ± 0.36 |
| YTVSNQLLSRLRGVQHNKLK | -1.11 ± 0.92 |
| VLGERYCPSNVLWLHLCGGE | 0.315 ± 0.28 |
| YDEGWANT | 0.048 ± 1.5 |
| NASCFADKPLLCSLTGRVMD | -0.043 ± 0.49 |
| YFFGLILY | -0.332 ± 0.56 |
| AERVCTFIL | -1.25 ± 1.1 |
| RRSQCSVEPGVWHRVRSFLV | 0.35 ± 0.77 |
| FDNTGDCTNFYQLSDWSP | 1.05 ± 0.22 |
| GGAQMVHTSQSRCAARGV | -0.831 ± 0.7 |
| ISCRFAMVLGLKSWILTYV | inactive |
| HNSLWGYFFMF | 3.19 ± 0.12 |
| LDNWYISRFCCDVMTDANVD | -0.322 ± 0.8 |
| CSDNV | 1.01 ± 0.49 |
| PVGNPLD | -0.039 ± 0.18 |
| VRGYGGVC | -0.296 ± 0.3 |
| SRVSYPGFYYGCPVFQYYSA | 7.589 ± 0.053 |
| FRLARGVVWCPGGISC | -0.536 ± 0.42 |
| AWNTGSIARHSFSRIVSTCD | 0.182 ± 0.39 |
| SIKCGVVHLNRMVRAQSKLC | 0.136 ± 1.5 |
| LVVFATSVGSGGFKVWGHPG | 0.041 ± 0.45 |
| NFFYT | -0.758 ± 1.1 |
| GIRSLFGGKCWDHGSFMWKF | -0.195 ± 0.54 |
| CVANLPGSKVLVWNTKFK | 5.38 ± 0.056 |
| MSLSFAPLAIYPDNIVTDVI | -0.329 ± 0.7 |

| Substance | amyloid nucleation score |
| --- | --- |
| KSLQTETFTKTAATQKSELA | -0.3 ± 0.52 |
| LSEYYKAKGDRVTWPQFLTT | -0.453 ± 0.49 |
| KWCDMRGYGQRFRCGRMVHV | -0.727 ± 0.73 |
| RLLEIWFMLRFGLFVSQCTI | -0.148 ± 0.34 |
| MSVLALVPGYLSA | -0.088 ± 0.46 |
| IVGVEGLKPIKAPLLLNRSV | inactive |
| GGNDHVANLTCNNVAGSRGT | 4.33 ± 0.14 |
| KLVLYEVFSSKKKHIFLSHQ | 0.586 ± 0.26 |
| GLLETYDWAVQWTGHLEC | 0.168 ± 0.89 |
| LTSSCQSSLKRKWGNIWHIR | -0.641 ± 1.1 |
| MTAIFSRSSQNFFVGW | 7.154 ± 0.066 |
| FKDLNIWDWKNGAHITNCLG | 1.05 ± 0.63 |
| FTNKFCFL | 0.069 ± 0.35 |
| MYFCM | 6.7 ± 0.059 |
| KIRLQVNSFMFVTPWAHFMV | 4.55 ± 0.052 |
| VCGEYEITVKIISVSRSNKC | 1.45 ± 0.26 |
| EMYCVYSFRSYFVYGLSLGS | -0.269 ± 0.36 |
| LDDAWRVWMHSL | 0.981 ± 0.43 |
| CGNAWVKAIMW | -0.191 ± 0.66 |
| RSYESCRAWLDEDGSVPIEC | 1 ± 0.49 |
| QTGQRFALKDSTSNSIPYLE | -0.607 ± 0.96 |
| SAPIDISMQLC | -0.18 ± 1.7 |
| SLAGFCMQPRTLLV | 0.86 ± 0.83 |
| SLYTKWKSILPNWVFVCIAL | -1.35 ± 0.38 |
| HRMGPQVKHIHNIGESKQSE | 0.822 ± 0.88 |
| RFSTTFYSVAVVYKRDSR | 1.86 ± 0.24 |

| Substance | amyloid nucleation score |
| --- | --- |
| KSDLLNMRWVGYWFIVSSMR | 0.099 ± 0.67 |
| GSRNNWKTPWSDNHGTLWRC | -0.298 ± 0.47 |
| CYTLFAVVNMLLVFNWQCRD | -0.34 ± 0.36 |
| LYNTITRDTTPHGVEN | -1.84 ± 2.7 |
| RWPDQCLLMLWMVLLFPSWE | -0.552 ± 0.28 |
| LGMGLTKLLSNYMSGIIVPL | -0.047 ± 1.7 |
| FAVINSPNKAGNRITRLGTY | 0.681 ± 0.47 |
| SALHVHRVKGSRREVSRDT | -0.072 ± 0.31 |
| YSLLVHIFMLLWSYDCLTVT | -1.54 ± 2.7 |
| AVLRRYQFVYDLSYLYEDFL | -0.836 ± 0.48 |
| LASEHNGASLICTLACTYLW | -0.642 ± 1 |
| NMYNVRLFVPHFSLECLTWY | 2.87 ± 0.12 |
| SCGLTCDAEYGRGFPGLCMM | 0.001 ± 1.1 |
| GSMSGTTDIPC | -0.158 ± 0.51 |
| LSRILLRKNC | 0.224 ± 0.61 |
| GILMVELWSRR | 2.56 ± 0.18 |
| GRMAMWYGTPKGGCCHKSLY | inactive |
| SYVVYCHSAMRRKGSMGRYL | 0.468 ± 0.37 |
| VDCLFLKHHFFLTVSSMVRN | 1.43 ± 0.84 |
| SDMYIL | 0.807 ± 0.43 |
| GARVTLYAVS | -0.475 ± 0.36 |
| RYSFLANGASSFGCVVLFSL | 0.503 ± 0.93 |
| SIFLKIPNREVLSSFRWTCF | -0.372 ± 0.22 |
| LHQVMAWCMGEKWAETRSPW | -0.703 ± 2.1 |
| MTCDVSKMCVSLRVVTSNGG | 1.27 ± 0.31 |
| SQLARLLFIAGIVPTRARVI | 0.144 ± 0.64 |

| Substance | amyloid nucleation score |
| --- | --- |
| AAGRMIRIMVTGVRLDKDKD | -0.257 ± 1.7 |
| WYPMYQNTYRAEERVT | 0.42 ± 0.64 |
| FWSLRMLMLADSSDKCVDYC | inactive |
| GFTDYNRVRYKVLTVVFDYG | -1.51 ± 0.95 |
| CDPGVKYSVSKAYRGWEYAL | -0.042 ± 1.2 |
| TMYPLIRLYGSMSRNETGEW | 0.437 ± 0.33 |
| TKDRFYEC | 0.419 ± 0.58 |
| ILLVSNEEISLCYCVYLGWM | 5.729 ± 0.056 |
| DWDSALPSLNFDSETPFYKS | -0.649 ± 0.48 |
| DSTLTVKFLMMVRYMVCSVG | 1.71 ± 0.25 |
| LLLIFNEELW | -0.28 ± 0.43 |
| SIQPIW | 0.952 ± 0.5 |
| SLSRD | -0.393 ± 0.41 |
| LPPTLVLMIHNRRVCRCSLA | 1.05 ± 0.69 |
| HYVKVRFRNRSVVYALIGGV | 0.752 ± 0.54 |
| KDHTWWALCFYIKIFELKVR | 1.39 ± 0.73 |
| ACMRCFGNICSLWSVKGN | 7.417 ± 0.052 |
| YSSVDDGGDQHRGLSKAGHN | -0.525 ± 0.64 |
| LEVYGQCDRVHCHSSR | -0.276 ± 0.5 |
| EAIIEWWFHDSLASHSCTEV | 0.58 ± 1.2 |
| LYWNVVN | -0.578 ± 0.5 |
| CMLVYCEVASVGVSFKLWWR | 1.73 ± 0.39 |
| AGYVWAKSSKDVKFYVLDM | 2.85 ± 0.17 |
| WVTQVDWSGRR | -0.348 ± 0.77 |
| MRPPGNPGWWVRRKARWDPG | -0.506 ± 1 |
| GCGFSWSLCGESPYAVRPVA | 0.538 ± 0.55 |

| Substance | amyloid nucleation score |
| --- | --- |
| GVDMRYFGPYAGYADYSKSR | -0.846 ± 0.44 |
| ITFIVAGI | -0.113 ± 0.21 |
| CCYDPNGLAKNKTW | -0.013 ± 0.65 |
| SETQNRLS | -0.024 ± 0.33 |
| DKSFDFVLGSEACMVVEVGN | -0.496 ± 0.61 |
| NTRYYFENNMR | -0.599 ± 0.4 |
| IARAVSSESASVWVKDT | -1.62 ± 2.7 |
| LGDELDTDAASISSNMEIWS | inactive |
| SGLFMWYGSQTPYNIMMKQK | inactive |
| LNWSNKWSFTNMRRFCAMF | 0.01 ± 0.26 |
| KFFHLAIMWFTPSSPHKGTC | -0.496 ± 0.62 |
| GRGVLSSPSALGRFSLTEGM | -0.444 ± 0.44 |
| MWTFWFSVCTYLFL | 2.37 ± 0.2 |
| SKFVT | 1.2 ± 0.9 |
| MGLQTFVVTRMV | -0.758 ± 0.42 |
| WCCHAGAMFAMAKSL | 0.468 ± 0.62 |
| LCMMMVQPLQGLSSAVTWSQ | -0.54 ± 0.35 |
| CGGFRNMRVPVHLVPACRW | 0.334 ± 0.68 |
| MVTCGYKDFK | -1.7 ± 1.5 |
| FCYIHGILGRSVEYDDFCLL | 0.184 ± 0.36 |
| MLLWSVSLNKKKTLKECRRQ | 1.16 ± 0.67 |
| FRDFMMTFMFPRDMSSGAVG | 0.067 ± 0.4 |
| ILHIEDAVMADWMHILMGSR | 0.571 ± 0.35 |
